According to patent US20050106145A1:

Legend:
human tenascin-C (human) [1] = biological target: human tenascin-C (human) (UniProt P24821); test: BIAcore
human tenascin-C (human) [2] = biological target: human tenascin-C (human) (UniProt P24821); test: ELISA, tenascin 5 µg/ml

human tenascin-C (human), sequence (P24821 23-2201 limits assumed): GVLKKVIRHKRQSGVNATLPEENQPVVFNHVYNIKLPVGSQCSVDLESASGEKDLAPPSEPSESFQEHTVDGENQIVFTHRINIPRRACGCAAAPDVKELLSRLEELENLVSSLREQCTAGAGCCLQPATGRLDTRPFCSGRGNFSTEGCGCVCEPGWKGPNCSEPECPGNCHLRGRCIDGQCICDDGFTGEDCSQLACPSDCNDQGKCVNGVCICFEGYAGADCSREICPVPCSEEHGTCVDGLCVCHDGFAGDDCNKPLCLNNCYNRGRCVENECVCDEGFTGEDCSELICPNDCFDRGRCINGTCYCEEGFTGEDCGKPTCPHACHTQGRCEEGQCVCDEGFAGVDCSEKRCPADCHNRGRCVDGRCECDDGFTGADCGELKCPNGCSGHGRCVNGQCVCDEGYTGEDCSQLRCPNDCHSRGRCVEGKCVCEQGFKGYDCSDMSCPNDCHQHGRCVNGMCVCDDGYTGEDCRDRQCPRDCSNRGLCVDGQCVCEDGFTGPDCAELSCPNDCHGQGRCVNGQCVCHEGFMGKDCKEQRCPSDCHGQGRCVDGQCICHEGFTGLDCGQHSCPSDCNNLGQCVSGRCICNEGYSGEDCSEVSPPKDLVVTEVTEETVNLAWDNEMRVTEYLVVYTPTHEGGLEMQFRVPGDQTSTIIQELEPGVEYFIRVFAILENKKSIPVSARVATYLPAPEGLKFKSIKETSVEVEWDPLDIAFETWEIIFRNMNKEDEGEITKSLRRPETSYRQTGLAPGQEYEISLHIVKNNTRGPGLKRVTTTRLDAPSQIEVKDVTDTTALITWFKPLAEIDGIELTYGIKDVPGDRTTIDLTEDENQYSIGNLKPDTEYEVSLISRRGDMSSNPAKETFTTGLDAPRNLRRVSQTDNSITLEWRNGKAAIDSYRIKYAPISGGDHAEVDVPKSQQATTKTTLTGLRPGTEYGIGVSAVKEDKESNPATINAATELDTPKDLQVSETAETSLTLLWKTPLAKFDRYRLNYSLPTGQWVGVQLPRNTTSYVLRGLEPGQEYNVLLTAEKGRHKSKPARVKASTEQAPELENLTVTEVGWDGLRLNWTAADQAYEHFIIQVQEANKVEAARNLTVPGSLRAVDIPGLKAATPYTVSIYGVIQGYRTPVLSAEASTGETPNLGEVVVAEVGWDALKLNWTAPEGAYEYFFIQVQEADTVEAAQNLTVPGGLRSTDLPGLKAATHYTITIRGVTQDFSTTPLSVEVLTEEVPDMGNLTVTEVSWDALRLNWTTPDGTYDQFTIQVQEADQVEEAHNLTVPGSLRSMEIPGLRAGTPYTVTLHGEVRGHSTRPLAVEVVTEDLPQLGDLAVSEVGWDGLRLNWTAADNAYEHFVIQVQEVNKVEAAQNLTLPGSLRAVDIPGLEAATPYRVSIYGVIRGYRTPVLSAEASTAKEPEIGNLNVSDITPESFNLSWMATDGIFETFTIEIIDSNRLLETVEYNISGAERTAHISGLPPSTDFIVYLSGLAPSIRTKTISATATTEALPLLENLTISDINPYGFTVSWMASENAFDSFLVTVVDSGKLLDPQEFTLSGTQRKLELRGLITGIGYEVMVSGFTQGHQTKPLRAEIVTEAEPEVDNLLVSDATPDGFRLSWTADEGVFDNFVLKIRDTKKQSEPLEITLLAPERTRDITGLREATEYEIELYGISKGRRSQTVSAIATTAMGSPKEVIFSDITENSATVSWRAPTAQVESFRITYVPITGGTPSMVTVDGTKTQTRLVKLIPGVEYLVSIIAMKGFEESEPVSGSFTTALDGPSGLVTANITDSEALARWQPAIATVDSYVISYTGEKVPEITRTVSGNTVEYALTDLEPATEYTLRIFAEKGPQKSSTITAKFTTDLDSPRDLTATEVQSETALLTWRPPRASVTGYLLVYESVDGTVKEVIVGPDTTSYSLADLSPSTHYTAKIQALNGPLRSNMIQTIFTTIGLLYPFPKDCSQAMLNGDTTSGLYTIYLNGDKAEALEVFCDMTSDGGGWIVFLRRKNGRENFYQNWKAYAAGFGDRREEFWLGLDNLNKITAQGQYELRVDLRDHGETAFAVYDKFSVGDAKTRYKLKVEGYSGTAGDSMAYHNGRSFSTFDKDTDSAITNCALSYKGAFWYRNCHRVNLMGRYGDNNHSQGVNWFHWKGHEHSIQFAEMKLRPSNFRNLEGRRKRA

- Kd (human tenascin-C (human) [1]): 4.9 nM
- EC50 (read off the curve) (human tenascin-C (human) [2]): 0.2 µg/mL
Substance: BC4 anti-tenascin monoclonal antibody
